Kd data for 4 substances are collected here from patent US20200088729.

Holding throughout (assay): SPR
One series addresses EED (UniProt O75530). The following applies: HBS-EP+, 3.25 mM MgCl2, 25 C.
In the next series the target is SUZ12 (UniProt Q15022). To be noted: HBS-EP+, 3.25 mM MgCl2, 25 C.
A further series deals with EZH2 (UniProt Q15910). To be noted: HBS-EP+, 3.25 mM MgCl2, 25 C.
The target of another series is PTBP1 (UniProt P26599). To be noted: HBS-EP+, 3.25 mM MgCl2, 25 C.
Series [1] has as its target T1, HaloTag-DasherGFP-3xLambdaN-V5 (synthetic construct (lambda phage N peptide)) (UniProt P03045).
T1 sequence: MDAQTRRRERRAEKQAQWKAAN
To be noted: ka 29700 1/Ms, kd 0.0012 1/s; HBS-EP+, 3.25 mM MgCl2, 25 C.

Chain of PTBP1 (P26599 whole entry): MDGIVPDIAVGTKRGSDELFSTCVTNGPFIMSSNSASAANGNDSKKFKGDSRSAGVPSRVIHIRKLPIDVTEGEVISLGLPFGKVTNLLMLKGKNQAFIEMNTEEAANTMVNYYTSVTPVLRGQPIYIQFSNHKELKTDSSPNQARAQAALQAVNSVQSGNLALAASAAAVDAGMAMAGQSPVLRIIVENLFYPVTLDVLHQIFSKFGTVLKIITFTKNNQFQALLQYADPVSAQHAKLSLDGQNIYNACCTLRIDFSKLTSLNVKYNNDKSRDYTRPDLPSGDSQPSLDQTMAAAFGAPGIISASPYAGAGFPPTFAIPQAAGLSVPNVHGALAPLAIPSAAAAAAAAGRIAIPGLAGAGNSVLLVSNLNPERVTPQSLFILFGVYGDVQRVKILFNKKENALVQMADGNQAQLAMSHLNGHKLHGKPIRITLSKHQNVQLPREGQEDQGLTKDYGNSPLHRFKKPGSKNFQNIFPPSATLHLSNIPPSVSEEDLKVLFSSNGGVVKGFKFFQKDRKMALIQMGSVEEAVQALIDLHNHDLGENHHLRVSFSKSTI
Chain of EZH2 (Q15910 whole entry): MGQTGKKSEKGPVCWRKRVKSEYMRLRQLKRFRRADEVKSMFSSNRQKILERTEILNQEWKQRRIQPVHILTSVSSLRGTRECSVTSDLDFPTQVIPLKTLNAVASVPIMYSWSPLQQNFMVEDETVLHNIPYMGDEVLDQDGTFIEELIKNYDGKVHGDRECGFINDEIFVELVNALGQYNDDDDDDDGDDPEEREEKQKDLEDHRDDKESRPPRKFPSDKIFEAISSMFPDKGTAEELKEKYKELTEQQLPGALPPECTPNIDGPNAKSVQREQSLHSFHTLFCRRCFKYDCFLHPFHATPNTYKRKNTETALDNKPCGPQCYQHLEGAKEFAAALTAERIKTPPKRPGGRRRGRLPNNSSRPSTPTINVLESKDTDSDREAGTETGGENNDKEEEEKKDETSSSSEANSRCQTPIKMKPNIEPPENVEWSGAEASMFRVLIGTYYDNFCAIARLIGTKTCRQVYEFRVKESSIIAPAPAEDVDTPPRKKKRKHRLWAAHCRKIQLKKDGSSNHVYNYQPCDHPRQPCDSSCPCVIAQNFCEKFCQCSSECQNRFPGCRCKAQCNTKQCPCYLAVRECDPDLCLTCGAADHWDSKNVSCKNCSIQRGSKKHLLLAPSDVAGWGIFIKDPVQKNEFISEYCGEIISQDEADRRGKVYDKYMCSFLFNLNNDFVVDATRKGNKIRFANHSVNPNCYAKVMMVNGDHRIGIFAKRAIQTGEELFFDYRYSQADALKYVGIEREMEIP
Chain of SUZ12 (Q15022 whole entry): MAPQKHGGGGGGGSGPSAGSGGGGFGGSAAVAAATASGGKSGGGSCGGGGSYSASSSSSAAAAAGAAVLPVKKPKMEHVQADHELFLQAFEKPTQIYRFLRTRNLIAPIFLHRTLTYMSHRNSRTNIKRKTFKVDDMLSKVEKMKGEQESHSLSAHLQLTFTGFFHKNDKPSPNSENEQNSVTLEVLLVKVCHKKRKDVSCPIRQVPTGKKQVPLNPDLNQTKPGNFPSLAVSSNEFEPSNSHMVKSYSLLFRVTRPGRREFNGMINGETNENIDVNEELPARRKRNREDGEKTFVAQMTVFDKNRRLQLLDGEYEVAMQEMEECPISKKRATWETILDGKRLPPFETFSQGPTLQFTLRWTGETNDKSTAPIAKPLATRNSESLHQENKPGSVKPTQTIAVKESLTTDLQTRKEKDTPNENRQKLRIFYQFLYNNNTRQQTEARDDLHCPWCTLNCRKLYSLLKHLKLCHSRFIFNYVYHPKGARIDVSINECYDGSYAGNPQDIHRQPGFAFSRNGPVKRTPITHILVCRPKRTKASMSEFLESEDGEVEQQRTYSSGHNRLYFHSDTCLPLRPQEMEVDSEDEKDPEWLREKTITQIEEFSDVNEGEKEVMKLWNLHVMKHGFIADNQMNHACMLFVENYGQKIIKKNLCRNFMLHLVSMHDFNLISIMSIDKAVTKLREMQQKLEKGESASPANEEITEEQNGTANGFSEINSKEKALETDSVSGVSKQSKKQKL
Chain of EED (O75530 whole entry): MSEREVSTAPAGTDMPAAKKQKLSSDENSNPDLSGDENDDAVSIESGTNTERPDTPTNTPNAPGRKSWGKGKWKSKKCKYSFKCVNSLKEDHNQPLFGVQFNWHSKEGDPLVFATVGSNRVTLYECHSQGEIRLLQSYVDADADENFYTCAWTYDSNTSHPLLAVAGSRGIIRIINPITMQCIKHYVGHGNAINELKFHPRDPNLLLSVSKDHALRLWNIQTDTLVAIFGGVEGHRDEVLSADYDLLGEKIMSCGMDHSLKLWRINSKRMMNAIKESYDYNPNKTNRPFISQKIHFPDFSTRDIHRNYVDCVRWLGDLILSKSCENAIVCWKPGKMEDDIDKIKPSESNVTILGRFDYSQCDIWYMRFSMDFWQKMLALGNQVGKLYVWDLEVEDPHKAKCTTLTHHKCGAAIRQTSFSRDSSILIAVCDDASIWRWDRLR

Regarding Xist E-repeat RNA, the Kd with EED was found to be 1100 nM; with SUZ12, 60600 nM; in the series with EZH2 (U-value 20) it was 13200 nM; in the series with PTBP1, 59.6 nM.
Consider Xist A-repeat RNA, for which the dissociation constant (Kd) was 257 nM with EED, 1790 nM with SUZ12 (U-value 26 flagged with asterisk (poor fit)), 56000 nM with EZH2 and 261 nM with PTBP1.
In the case of MBP RNA (nt 1-240), the Kd in the series with EED stood at 1630 nM; with SUZ12, 1350 nM; with EZH2 it was 58100 nM; in the series with PTBP1 (U-value 20), 8680 nM.
As for MBP-5xBoxB RNA, the equilibrium dissociation constant (Kd) with EED (U-value 20) was 2940 nM; in the series with SUZ12 it was 96600 nM; in the series with EZH2 it was 66000 nM; in series [1], 39.3 nM; with PTBP1, 104 nM.

One may read the Kd as the equilibrium constant for the complex coming apart.
